The target in this experiment is T1, 重组cTnI抗原 (UniProt P19429 1-210, limits assumed).
T1 construct: Both are treated here as the same coating of the same experiment
Description: indirect ELISA, recombinant cTnI coated, enzyme-labelled secondary antibody. (In general: ELISA stands for enzyme-linked immunosorbent assay.)

T1 sequence (P19429 whole entry): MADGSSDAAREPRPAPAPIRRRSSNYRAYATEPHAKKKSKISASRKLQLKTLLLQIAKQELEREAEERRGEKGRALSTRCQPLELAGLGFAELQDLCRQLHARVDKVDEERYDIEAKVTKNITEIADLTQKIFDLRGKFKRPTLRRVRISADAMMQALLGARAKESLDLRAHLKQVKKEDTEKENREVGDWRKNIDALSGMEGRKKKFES

B1: cTnI抗体突变4 (antibody, V domains shown)
VH: EVQLVESGGDLVTPGGSLKLSCTASGFTFSNYAMSWVRQTPEKRLEWVATISSGGTYTFYPDSVKGRFTISRDNAKNTLYLQMSSLRSEDTAIYYCTAAGAFDGEKALDYWGQGTSVTVSS
VL: DIQMNQSTSSLSASLGDRVTISCRASQDISSYLNWYQQRADGTIKLLIYFTSRLHSGVPSRFSGSGSGTDYSLTISNLEQEDIATYFCQQGNTVAATFGGGTRLEIK
notes: Mutant of a mouse anti-cTnI monoclonal antibody, made recombinantly by transient expression and purified on SPA; also called 突变抗体4
For the molecule B1, the binding result is “no binding (tested: 检测值小于0.05基本可判定无活性 (阴性对照0.047左右))”.

Source of the values: patent publication CN114835808A (dated 2022).
